Assay: soluble on expression in E. coli; label from the status in PepcDB or PDB records

Sequence | soluble on expression in E. coli
MLVGNIVKEVLAYKKGQIQQKLSSPQAFVSSRFQEKLQSEPAKETKGTTQLAKVEDMSQPVQSTKIETVVNKPEQSIHKVEEASKPEEKAETKNVDEVQVAQKEFERRFPETKNEAADTWGLTKKYNIQKIRSSNEGKYEDIIDRVSHTYGIPKTLIQKMIEVESDFNPKTVSHAGAKGLMQLMPANVKEMGIKNPFSPAESIEGGVKELSGYLKKNNGDLVLALASYNAGPGNVRKYGGVPPFKETQGYIKKILNIDVSK | not soluble
MSLSRRIGIIDTTLRDAQQCLWATRMTAGMMDPIAQALDEAGFDMIDFMAPVQFDVCVRYLREDPFEKARHFRKRFRNTPMRSYCRSKSLVGFSMVPDDMVELWIDCLAANGFSAVGTLDSLLDVDNMKVSVGRAKKIGIKSIGALVFCESPLHTDALYAGTAAELVRCGVDGIMLKDSGALLTIERIRTLIPALRAAVGDIPIEVHSHSNTGLVQRVYLDAADLGIDQLHTSIAPLAGGVAQPSIQNMTRNLAQRGYRTDVDMARVEEISAYLHRLAARYDFPLGKEGHHHHHH | not soluble
MSPVSARFEPAALRPDLARIAGWIEPGSRVLDLGCGDGALLAYLRDHRQVRGAGVEIDDNYVIACVQRGVEVIQQNLEDGLALFDDQQFDTVVLSQTLQSMHRTEHILREMARVARHGVVSFPNFGYWPHGWSILRGRMPVTGQMPYQWYNTPNIHLCTLRDFEDLAGTLGLRILQRATFNEGREVRVFPSWRSTLALYRFAASLEHHHHHH | not soluble
MLLENGWIVGVKQVLSPHFDLRPEGEMPSLLVIHSISLPPSEFGGPYIDQLFTGTLNADEHPYFASIVHLRVSAHCLIRRDGEIIQYVPFDKRAWHAGVSVFAGRERCNDFSIGIELEGTDVLPFTPVQYQRLTEISAVLFAHYPITVERVAGHSEIAPGRKTDPGLAFDWFFYQQNLAKLLV | not soluble
FGNFNFNTNFVFGYAKNRVDYKAEAQQKYEWLRETGRQIGQPFGYHWIGYYTPEDIEKINSGAADAPAKPDIAVQAGDLKYADLNGDGTINDFDKRAIGKPNLPTTTLGWTIGGSWKGFSISVLFQGSFDYSFAINGTGIESGKSQFQPLHQKRWTQERYENGESIEFPRLTMQDGTINSASAYNSDFWLINAWYIRLKTVDLGYQLPKTALPKFLDNVRFYVNAYNLLTFTGYDKYQQDPEIKTNTAGDAYMNQRVINFGVQLGF | not soluble
MKVAVLDFGKTNSKLFVFGQDGGILDERRTQPKWTHQDGFSVLDEAALHDWALGAVTEAVENHGVEGVMVSGHGCTFALVDDAALTHPILDYEQEPPAEIAARIDHRIPDFAETFSPRLPLGFNYGRHMLWVQEVDPDAFAAAKSILGYPQYWSWRLGGRPVSEVSYLGCHSHLWAPRSQDFSSLVDAEGWRGQMPAFARAGAVIGERRLGSSSRPIAIHNGVHDSNAALHAYRRQELGPLTVVSTGTWVVVLNPGCPLDVLDRDRDMLVNVDVDGGPVPTIRFMGGREFAAISAGWQGAIPPGAVQQAIDAGIMALPSFAPGGPMPDRPGRLVGRTPYAAERAAAALLYVALMVDLCLDLIQSQDTVIVDGGLNAGGLLAGLLAELRPGQAFLQGATLEGSATGAAALAFESVGRDFVAEAPEPVHAARFAGLAGYRDAWRDRVGGQGTAIKAAGGARLEHHHHHH | not soluble
MGSDKIHHHHHHCDLERYPLTDLSEETFWNSESNAELALTSLYRGSLTDGVEYNPSDWWSYHGMIMMEHLSDNAFDRRGENNPFFKISSGNLTADNAFIKRYWETSYKRIGYCNRFLVGIQNSSESEKKTRMIAEARFLRATQYFYLASYFKNVPLVENVLTGEEANNVTKTSQADILKWCVTEFTAAAADLPRFSAIPAGEAGRACKQAALAFLGRTCMLQKDWKSGAKAFHDIMELGDNAINANYQELFYPSTGTSNKENIFYIQYLENYLGTGLPQHALSAKDGGWSLVNPAADLYESYEFKDGTPFSYDDPRYDPSNLGKDRDPRLDYTIYYNGAIFMGTEYKMSPDYSAAKKEKLDYTSEASRTGFMMRKYFEESTPINDVQSANGLTPVIRYAEVLLGYLECLVEDNQTITQGILDETINAVRGRASVNMPPVTEVTPAKLREIVRHERRIELAMEGIRYWDIMRWGIAHEVLSQKIWGAPYPGSTQYATTTKEVDPTGNYRWYVGKRAFRNPTDYTWPIPQSEQNINPNLRD | not soluble
MGSDKIHHHHHHMAIRTCFCTGVLPVTMDDLTSGYNIAEILTLEPEFLSMLGFTYKEAEVYLRYVLDTYTEGQDRFDDVWQLIVNNYDGYRFLPEAEPLFNSTILTYFFKKFAVRKGGIPSELVDENLRTDIGWIRHLTLSLENAKEMQDALVIDDELSYNVSDLSSKFNKRKFFDKSIYPVSLFYLGMTTLRSNYRMVLPNLTMRSIYMDYYNEMNHIEGNAQRYVPTYERFTEERRFEPLVQNYFEQYLGQFPAQVFDKINENFIRCSFFELCSRYLSSCYTFAIEQNNSAGRSDFEMTGIPGTDYYKDDRLAEFKYFKAKEAERMLALSDPRPEDVAQVLAYAKDTKVKFPHYHVRSYIVYICANKGWKCWEVTP | not soluble
MGSDKIHHHHHHMALYEPFPNYIWNLSVSIAMESGGQIGEIVDMCQPIIDAASNGGDAGTPQFMKQWAAYGDKLIALAAEDEARGRMFSASNKLERASLYLLVAERMQGHGAPGRKESYAKARDAFDKSTALGKINRERVEIPLGKGTMPALYTRAPGNGPHPVVVYCNGLDSCKELLYWSRLPEALARRGISTICVDQPGSGEALRLQDLPVDPHSENWASKAVDWLEQQPDVDPKRIGMTGISLGGHFAPRAVAYEPRFASGAVWGANHNWREVQDKRLKREGENPVPHYWAHVMWAFGASDMDDFMVKSEDMNLNGHMDRIKVPFLVTHGADDRQISVSYADDLYDQLVNSPRREKVIFTAREGGVEHVGADNMAYGRDCIADWFAETLGGTTA | not soluble
MRIGLFTDTYFPQVSGVATSIRTLKTQLEKMGHNVFIFTTTDRDVDRYEDWQIIRIPSVPFFAFKDRRVAYRGFSKALEIAKQYKLDIIHTQTEFSLGLLGIAIAHELKIPVVHTYHTQYEDYVRYIAKGMVIRPSMVKYIVRGFMSDLDGVICPSEIVYDLLLKYKVAAEKRVIPTGIELEKFQRPEITEEDVSDLRAKLGISSDETMLLSLSRVSYEKNIQAVMAALPSVLEEEDKVRLVVAGDGPYLPHLKSQAKKLGIEDKVVFTGMIAPGETALYYKAADFFISASTSETQGLTYLEALASGTPIIAHGNTYLDNIITDKMFGILYYHDNDLAGAILEAAIVTPEKDETKWAEKLYEISAENFGKRVYEYYLDLTISKDFHNDLNGEDSTMKRLTRMVTHLPTKAITLPVNGSVRIIKGSAKQVKKIRNIKKFLDLEHHHHHH | soluble
MLVTTTERISGQEYEIIGEVFGLTTRSKNMFKDLGAGLKSVVGGEIKGYTDMQREARDQAIERLKAEASKLGADAVVMMRFDSGTIGTDMQSVVAYGTAVKYILEHHHHHH | not soluble
MGSDKIHHHHHHMYSTTQHQSPETVVTVSSLGKAYKIYNSKRDRAKQLIFQNRRKYFQEHWALRNISFDLRRGESIGIVGKNGSGKSTLLQLICGTLKPSQGEVIVNGKIAALLELGSGFNPEFSGRENVYLNASILGLNKQEIQERLDDILAFADIGNYVDQPVRTYSSGMVVRLAFSVIAHVDADILIVDEALSVGDAYFTQKCMRFIQRFQEKGSLLFVSHDANAILSLCNRALLINQGELKRVGKPKEVIEDYTRDLQKRNLADQNNKINRPERMKEQENTAHMKRQSGVQYTQKNIENEIMKWSDYRCKLINSSNLANTIVITRFDETLTTRETYGGEKAEITNVELENIETNKTIQNIKGGEIVRLRLKFEARTAIGRPIIGFILKNSKGLTILGDNTNNSISENNDFNAFEGDKVTTDFVFTVPMLQQGEYMISVSVADGCITEHEILHWMNDALLLRSQCTSIAAGLAGVPMHSISIEIEK | not soluble
MGSDKIHHHHHHMPTPIKIGVSSCLLGEKVRYDGGHKHDRYITDTLGRFFEFVSVCPEAECGMPIPREAMRLEADGGEVRLVTSRSRVDKTEQMLDFCRRKVLELESEDLCGFIFKKDSPSSGLFNVKLYRRGMPTKAGRGLFADAVTKHFPLLPVEEEGRLHDMGLREHFIERVFAFRRWKDLLLGGKSLGRLVAFHADHKLLIMAHSPEVYREMGALVARGKELGCDDLFACYQELFMKALSLHATVRKNTNVLQHIAGYFKKQLTREEKAELQEVIGEYHRHLVPLIVPVTLLRHYVKKYGQEYLLKQVYLSPTPLELMLRNHV | not soluble
MMSTPALRPYLPEDAAVTAAIFVASIEQLTADDYSEEQQEAWASAADDEAKFAARLSGQLTLIATLQGVPVGFASLKGPDHIDMLYVHPDYVGRDVGTTLIDALEKLAGARGALILTVDASDNAAEFFAKRGYVAKQRNTVSINGEWLANTTMTKSLADSAAPGASS | soluble
MSLAKISKIEAQKRKGRYNIYLDGKYAFPVAESVLIQFRLMKGTELDEKQIAAIATADQQAKAYSRMLDYLSYQMRTESDIVKKLKEIDTPEEFVEPILKKLRGQQLIDDHAYAASYVRTMINTDLKGPGIIRQHLRQKGIGESDIDDALTQFTPEVQAELAKKLALKLFRRYRNQPERRREQKVQQGLTTKGFSSSVYEMIKDEVVPQPDLEQENDLLAKEAAKQWRRVRRYQGYEREQHFKQTMYRKGFDLDDVQSWLDAQDEGHHHHHH | soluble
MLLSVIITAQGRKGYVMQAVRSVLSQNIPKEDFEIIVSKDFKDDVIDEFLDGRAIVLNENHIRSGSRVASAVLQSSGKILVFLDDDDLFYPGKLREVKIVFSEMGVDYFKNSVKPVAESGDTVSYYQPAIKSDIFVKEPNEQDIRKLLKLRAGFNSSSISLKKDILVGYLDVLSKINLAVDSFYFFLYMSHSRPIYYSKKTLSLYRVLSKSTSRDVRNINAYAEFKSKFYELYSRDFETISEMASDGPCSKLAKTEFHLQMAYKWIFNTYRKEERPRMLHTLASSIYSHDPFIALPWPSFMKKIVQRREYFREKKLLSENTELEHHHHHH | not soluble
DAVPEKSLNAALLCLQAMGALDDNGDVTEHGKKVYPLPIDALFADLVTRIPTKAEKEAMIDLAAALSVPAQLYQLQRGEAAEALEREEPLGCD | not soluble
MGFKTVAKEEKQQLVANVFHSVAAKYDLMNDLLSFGIHRIWKRFTIDCSGVRKGQKVLDLAGGTGDFSAKFSRIVGETGQVVLADINSSMLEVGRDKLRNLGVVGNINYVQANAEHLPFADNTFDCVVISFGLRNVTDKDKALKSMYRVLKPGGRLLVLEFSKPIFDPISQLYNFYSFNILPKVGGIVVNDAESYRYLAESIRMHPKQDELKTMMEHAGFESVNYYNLSAGIVALHRGYKLEHHHHHH | not soluble
MGSDKIHHHHHHMSKLIVPQWPQPKGVAACSSTRIGGVSLPPYDSLNLGAHCGDNPDHVEENRKRLFAAGNLPSKPVWLEQVHGKDVLKLTGEPYASKRADASYSNTPGTVCAVMTADCLPVLFCNRAGTEVAAAHAGWRGLCAGVLEETVSCFADNPENILAWLGPAIGPRAFEVGGEVREAFMAVDAKASAAFIQHGDKYLADIYQLARQRLANVGVEQIFGGDRCTYTENETFFSYRRDKTTGRMASFIWLI | soluble
MSLHWSFPEMIRLFSDEYRSSMLSEGNFGVERESQRVNYSGDLALTPHPSVFGDKFENPRITTDFSESQIEMITPPLKSAEEVYKALNDINNEVKNALKGELLWPLSMPPRLPKEEDIPVAQFPDTEDGRQKQIYRNGLALRYGKKMQMISGIHYNFSFSDKMIDFIYRQLRIEKTKRQFIDEMYFSLTRNFLRYHWILIYLFGASPICDSTYNSVIFKELEKIEKCCPHCAGKIKNFNRYATSLRVSRFGYSDTDEKKYTVYFNSLREYETKIKKMMETESNKYSKLGIYKDGVQIQLNGNLLQSESEFYAPIRFKRNIKKGETQLTALVNRGVEYIEIRILDVNPFDKVGISVEQMNFLQVFNVFCLFEESKSIDEEQMERINTNHQLAALLGRNEDLMLYKYNDDSRIPLKNFGDEIFEKLRIVAKLMDKDNVEKKYSESVESEYKKLHNIELLPSERICREMDNDNRSYIQFGMEYAEAEGHHHHHH | not soluble
